We go through two proteins from article doi:10.1101/2020.07.07.192807 (bioRxiv, 2020).

The series concerns the molecule itself. Description: cross-linking.

Numbering of substitutions follows the chain as printed. In names and notes the source's numbering stands.

B1: Wild type MtrR of Neisseria gonorrhoeae (strain FA19), hexa-histidine tagged (natural protein)
chain: MRKTKTEALKTKEHLMLAALETFYRKGIARTSLNEIAQAAGVTRGALYWHFKNKEDLFDALFQRICDDIENCIAQDAADAEGGSWTVFRHTLLHFFERLQSNDIHYKFHNILFLKCEHTEQNAAVIAIARKHQAIWREKITAVLTEAVENQDLADDLDKETAVIFIKSTLDGLIWRWFSSGESFDLGKTAPRIIGIMMDNLENHPCLRRK
One may read the stoichiometry N as the number of molecules, sites or subunits per partner or assembly. In the case of B1, the “stoichiometry N” value was found to be 2.

B2: H105Y mutant MtrR of Neisseria gonorrhoeae (from an antibiotic resistant clinical isolate), hexa-histidine tagged (natural protein)
chain: B1 chain with H105Y
For the protein B2, the “stoichiometry N” value turned out to be 2.
